This data set in a line: soluble on expression in E. coli; label from the status in PepcDB or PDB records.
With “MGSDKIHHHHHHMFSKKVKWEETMTYKSIRALERGIDVLQYLNTVKGAAPPEIAENVNLPRPTVHRILETLSELNLVYRSQLGDEYRLSSGVQRLAGNRSSVRLNWIDEIALPALLELTSEIIWPSDIAVCHKAAMIIQGTTHRISPMSCDVGMVGNRRSMLMSPLGRAYLSHCPDDELKSILCALNASSASEDKGARDRAFIKEIIETGRRDGVSACNERPHPRCASLAAPIRLNGKVLACMNVVWRANMLTIEDAMDQIRDPLLATRDRIEAQLHEQFARPALGSTSFPETYTLRTGTRDRLPHSLALA”, the “soluble on expression in E. coli” value is reported as “not soluble”.

Regarding “MSLKYLLLGMMLLGSFAASAGMDPQQLKQTIEQRLGVQVYLVDETPMPGLYMLGTAQGLLYTDARGDYVLQGTMLDLAHDMKNLTMLGLRQQRQLALAQIGERRVQLRAEQERHRVTLFTDLACSSCRTTLAELPVLQARGVSVQLLPVLGTFADLAEAQARWCDPRQFDALDLSDRLPETGCNEILAHHIGLSQWLGIKALPSWVLPNGDLVRGYQSPEQLLKILDHINAPANPSSEGHHHHHH”, the “soluble on expression in E. coli” value is given as “soluble”.

Consider “MSLRKVRVGIWGFGAMGIGMANMILKKEGIEIVSVCSRSTSGKSMYDVLGIERGERPEVIINKNYEEVFREKSVDVVLLATDSFTKKAFDKIIFLLNRKINVISTAEQMAYPQADDADLAKKMDEVAKENGVSILGTGINPGFVLDLLVLALSGTCEEVTSIKAKRVNDLSPFGKSVMVEQGVGVTREEFIKGVEDKTIAGHVGFVESINMIADGLGWKLDKIEQTKEPIMTTVDRKSKYGEALAGNVAGCRQCGYGYVNGEVLIEMEHPQQIIPEAEGIKTGDYVSIKGIPNIDLQINPEIPGGVGTYAMIVNSIPLIINARPGLKTMLDIPVPRAIMGDIRNQIEVELEEEGHHHHHH”, for which the “soluble on expression in E. coli” value was “soluble”.

For “MSLCRFVAYLGRPTLLENVLVRPKNSIIMQSLHARETKYRTNGDGFGLGWYSPEVSSDPALFTSVYPAWNDRNLLHLTAKIQSPCFFAHVRSASAGGVTNYNCHPFIYGDWMLMHNGEINDFIDVKRHIRHLLDDDIYHWVKGQTDSEHLFGLFLQLAKGRDITQLSVAADVLQETINKILEVIGQFGHSGPSYFNICLTNGKKIIATRYCSHEKKKPLTLHYLIGYVLSTQGLWIKEEGNPAYVVVSSERLNDLDEGWEDVPPQHMILIDENKNIQLRPLQTLGEGHHHHHH”, the “soluble on expression in E. coli” value was “soluble”.

“MPIDDNIIIADEAVIHPGDLHEDFIRSSGPGGQNVNKVATAVQLRFDAANAAGLSERVRARTIKLAGQRATKDGVIVIEAGRFRTQEQNRADARARLTALVAKAAEPPPPPRKKTRPSKGAVERRLKSKAGRGTIKKLRGRVGDDLEHHHHHH”: the “soluble on expression in E. coli” value is listed as “soluble”.

On to “MGSDKIHHHHHHMQLIFFRGMKELLSTMDLDTDANTIPELKERAHMLCARFLGGAWKTVPLEHLRISRIKGGMSNMLFLCRLSEVYPPIRNEPNKVLLRVYFNPETESHLVAESVIFTLLSERHLGPKLYGIFSGGRLEEYIPSRPLSCHEISLAHMSTKIAKRVAKVHQLEVPIWKEPDYLCEALQRWLKQLTGTVDAEHRFDLPEECGVSSVNCLDLARELEFLRAHISLSKSPVTFCHNDLQEGNILLPKASSGNIRMPSLSDETQALGNSLSAFNPADPRLVLIDFEYASYNYRAFDFANHFIEWTIDYDIDEAPFYKIQTENFPENDQMLEFFLNYLREQGNTRENELYKKSEDLVQETLPFVPVSHFFWGLRERSSVAVLQT”, for which the “soluble on expression in E. coli” value is “not soluble”.

Take “GVALGATRVIYPAGQKQVQLAVTNNDENSTYLIQSWVENADGVKDGRFIVTPPLFAMKGKKENTLRILDATNNQLPQDRESLFWMNVKAIPSMDKSKLTENTLQLAIISRIKLYYRPAKLALPPDQAAEKLRFRRSANSLTLINPTPYYLTVTELNAGTRVLENALVPPMGESAVKLPSDAGSNITYRTINDYGALTPKMTGVME”: the “soluble on expression in E. coli” value is listed as “soluble”.

For the sequence “MQEKSKMDCHGGISGTIYEYGALTIDGEEYIPFKQYAGKYVLFVNVASYGGLTGQYIELNALQEELAPFGLVILGFPCNQFGKQEPGENSEILPTLKYVRPGGGFVPNFQLFEKGDVNGEKEQKFYTFLKNSCPPTSELLGTSDRLFWEPMKVHDIRWNFEKFLVGPDGIPIMRWHHRTTVSNVKMDILSYMRRQAALGVAENLYFQ”, the “soluble on expression in E. coli” value is “soluble”.

Consider “MTGNSFNSMKDFLKQTGGYAVIDGGLATEFERHGADLNDPLWSAKCLVTSPHLIHTVHLDYLEAGADIISSASYQATIQGFEAKGFSREESESLLKKSVEIATEARNSYYDKCGTSSSMDDKILKKRPILVAASVGSYGAYLADGSEYSGIYGDSITLEKLKDFHRRRLQVLAESGADLIAFETIPNKIEAQAFADLLEEGDVKIPGWFSFNSKDGVNVVSGDSIKECISIAENCEKVVAVGINCTPPRFIEGLVLEIEKVTSKPILVYPNSGESYDADRKEWVENTGVGDEDFVSYVEKWMDAGVSLLGGCCRTTPTTIRAIHKRLVNRRSL”, for which the “soluble on expression in E. coli” value is “soluble”.

With “MGSDKIHHHHHHMRYIDLAEMCIADISSGKLVKNSRMPSLRNFRQQHSISMTTALNCYQYLESLGWILARPQSGYFVCGQRMANEKPELVAFKSIMTDPKLPVVKPYYQHGNSSACAIDSAHNTSANHSVYQPANKDIVGPLGVARISTDFIPLDKLQNSFRRALKRQGSNISFYPDIQGEKILRDTLSSHFKSYDFHIPSDELLITNGCMDAIQTAIEICTDFGDAVAISSPCFNGILDMLAALGRKVVEIPSTEQGIDLVQLEQHMKSNQIKAGLFCTSHMNPQGISMTALQKQHLVNLAQTYKIPIIEDDVYIELAHGKVMPLPAKHWDKHGYILWCGSVSKTIAAGYRLGWCWPGRFTEQYLQKRKYCNQGVSSPVQLGLADFISNGDYAKHLKKLRVAIQQHTLSYQRYLTKNLPVASKISDPSGGFVLWIQVPNLNGRKLLALATEGNIDIRIGEQFSTRDLYQDYFRVNTGFMITEGNDKDTREEVDSQINKLMKLVKVASSERI”, the “soluble on expression in E. coli” value is on record as “not soluble”.

“MGSDKIHHHHHHMYQPGIVFLFSGHKIGYINERTFRYDTNEYLLLTVPLPFECETFATPEVPLAGMRLNVDILQLQELLMDIGEDPLFQPAVASSGINSAVLSEDILCAAERLLDVMERPLDARILGKQIVREILYYVLTGPCGGALLALVSRQTHFSLISRVLKHIESQYTENLSVDRLAAEANMSVSAFHHNFKAVTSTSPLQYLKNYRLHKARMLMIHDGMKASAAAMRVGYESPSQFSREFKRYFGLTPGEDAARIRTMQGM”: the “soluble on expression in E. coli” value is “not soluble”.

In the case of “MSLQGRRRKSLVFFPFFKINDKGASAMEEMVVVTPEKLEKLMKQKLEAAGLHSEHAEEVARHLTFADASGIHSHGAVRMDYYAERIAKGGITIDPELSFEKTGPSTAIFHGDNGVGQFVCNEALAAAVDLAKESGVAYVGVSQTSHSGTLSYYVKKAAEQGMVALSMCQSDPMVVPFGGTSNYFGTNPIAFAAPRAGHEPVVFDMATTVQAWGKILDARSRDVEIPDTWAVDEKGQPTTDPYEVRGLLPISGPKGYGLMMMVDVLAGSLLGLPFGKHVSSMYADLTEKRNLGQMFLVIDPSRFTDSERFKENINQMVEELHCVPTAEGFQQVYYPGEIGQLNYQKAMSEGIEIPQSIYDYLVSEIVHYDKYGGQGAFAKEGGSHHHHHH”, the “soluble on expression in E. coli” value is recorded as “soluble”.

Regarding “MGSDKIHHHHHHMMAEALQRENPSGFEGSVAGLPLTDVIQLKGQNRFSGCIAVEYRERQGMIFFRDGDIIHAEQGKLMGEMALYEIIRWPGGRFNIQPKVTTTSRTIQQSISFLLLEAHRLMDEEQAAVRADEGTRREEAAAPAAVQNRMSAVAERIVRIAGVSYAVLMKKDGTPLEDDSFEAEVLSAKGMSLAGIGSRLGELFGLDEVKSAAVHARGKQILLFEAKNHYVSIAVRGDSSLAHVENEIRSTFAGRK”, the “soluble on expression in E. coli” value is on record as “not soluble”.

On to “DHAAPLIFLIAGTGAPYNSTINEFLKKLYYGAGYHVVQLSSPTSYDFMSSASRFATPGVSTEDAEDLYRVMQAIRAQQAQLPVTDYYLTGYSLGALNAAFVSKLDETRRSFNFKKVLLLNPPVNLYTSISNLDKLVQTNVKGINNTTTFYELVLAKLTRYFRQKGYIDLNDALLFDFQQSKQHLTNEQMAMLIGTSFRFSSADIAFTSDLINRRGLIIPPKFPISEGTSLTPFLKRALQCDFDCYLTEQVIPMWRARTDGGSLLQLVDQVSLYALKDYLHSNTKIAVMHNADDVILGAGDLGFLRKTFGDRLTVYPYGGHCGNLNYRVNTDAMLEFFRG”, for which the “soluble on expression in E. coli” value was “not soluble”.

Turning to “MTVEHSEAPMTETDVVIIGAGHNGLTCAAYLAMAGLRVRVVERRKVVGGAAVTEEFHPGFRNSVAAYTVSLLNPQVIRDLGLAEQGLRIVERRAQNFLPAPDGSYLLTGEGRTKASVARLSAHDADALDGFSRELEDIADVLRQFVLRAPPNLLDGFGTNAIREAVNALQSANILRGLTLEQSRSLLDLFTRSAGEMLDERFEHDLVKALFGFDAIVGNYASPYAAGSAYVMLHHAFGEVNGKKGVWGHAIGGMGAITQAMARAAQGRGVAIDTDAGVREVIVERDRAVGVVLENGATIRAKYVAANVNPKLLYTRLIAADALPKDFLARIRHWKNGSGTFRMNVALDRLPSFTALPDDGDHLTSGIILAPSLGYMDRAFLDARAHGWSREPVVEMLIPSTLDDTLAPEGKHVASLFCQHVAPELPDSRSWDDHRDEVADLMIATVDSYAPGFASSVLGRQILSPLDLERQFGLLGGDIFHGALTLNQLFSARPMLGHADYRGPLKGLYHCGSGAHPGGGVTGAPGHNAAQAILRDHRSLFGSRGLEHHHHHH”, the “soluble on expression in E. coli” value is recorded as “not soluble”.

Regarding “MTISRRSLLEGLLGAAAGLALLPVLGGRAGAALPREAEVVVVGAGAAGIAAARRIVAAGRKVIVVEAASEIGGRCVTDTTSFAAPFDRGARWLHNPDSNPLVRLARSSGFAVTPVAPGQKVRIGRRNARSRETEDFLAAFVRASRAISDASRGKSDISCAAALPNDLGDWAATIEYVLGPATTSKDLRALSAMDAVRTLDRTALLGCPQGVGSLLTQLASSLPIALSTPVKRIVWSGRDLAVETTAGRIGARAIIVTASTNVLTSGNLGFSPELPKRQLDAAARLSLGSIDRIALQFKGNPLGLSRDETIIERADDIRTATLVGNIGGTSLCTVDVAGSFGRQLAAQGEAAMQDFAIEWLGKLFGSDIAGAVERKAVTRWNEMPYVLGAMSAAEPGGQPSRKVLGEPLGNLFFAGEATHETLFGTVQGAWESGERAADAALKKIGAVKEPAPEKPVRKQKPRREPQRQREQRPPATASGTPSWWRLEHHHHHH”, the “soluble on expression in E. coli” value is “not soluble”.

Consider “MSSQMKAFLNELQGNMEVVGEFFDNPEKVIRKFGIVGREKEALLIRDLNDMDDYALSIQNSVASPSGAHSSTCHFVRQDLQSA”, for which the “soluble on expression in E. coli” value is on record as “not soluble”.

Take “MNTISILSTTDLPAAWQIEQRAHAFPWSEKTFFGNQGERYLNLKLTADDRMAAFAITQVVLDEATLFNIAVDPDFQRRGLGRMLLEHLIDELETRGVVTLWLEVRASNAAAIALYESLGFNEATIRRNYYPTAQGHEDAIIMALPISMKLHHHHHHHHHH”: the “soluble on expression in E. coli” value is listed as “soluble”.

On to “MDGELRAQGLRKRYGPKEVVRGVDLALRRGEIVALFGPNGAGKTTTFYMVVGFIRPTGGRIYLKGQEITALPMYKRARLGLGYLPQEPSAFRRMTALENLLAVLEFQPLSKKERLEKAKALLEELSIYHLRDRMAYSLSGGERRRLEIARALATDPDFLLLDEPFTGVDPKNVREIQKVIAELRERRGVGVFITDHAVRETLAITDRVYLMYDGQVLFHGDPETFAKDQGVRRHYLGEDYEL”, for which the “soluble on expression in E. coli” value was “soluble”.

Regarding “MVSDAHFQGQFEVELKYRVKNHDAFLNMVKQIEHEVMFENNQESDWFYDTPQRTLTQQGKSLVLREIQPAGIKLWIVKGPEADRCEATNITKLDSAQSMLENMGYEVIQCSKKIRSIFFVGEFHITLDFLDGFGHFAEFAIMTDDETALARYRERLVALAQQFHLSEADREHRSYKEILSALEHHHHHH”, the “soluble on expression in E. coli” value is given as “soluble”.
